{
  "source": "patent US11406618B2",
  "about": "“Polymer-des-ethyl sunitinib conjugates” (Nektar Therapeutics, priority 2010, dated 2022)",
  "assay": "Buffer hydrolysis in phosphate buffer to monitor the release of des-ethyl sunitinib",
  "assay_type": "physicochemical",
  "details": "100 mM phosphate, 37° C.",
  "description": "In a 10 mL round bottom flask was added (Z)—(N-(2-aminoethyl)-9-(hydroxymethyl)-9H-fluorene-2-carboxamide hydrochloride) ethyl(2-(5-((5-fluoro-2-oxoindolin-3-ylidene)methyl)-2,4-dimethyl-1H-pyrrole-3-carboxamido)ethyl)carbamate dihydrochloride (Compound 2a) (4.83 mg, 6.42 μmol). The solids were dissolved in anhydrous tetrahydrofuran (0.4 mL) and 1,4 dioxane (0.2 mL). mPEG-SPA 20K (100.4 mg, 5.02 μmol) was added. Anhydrous acetonitrile (0.2 mL) was added to dissolve the PEG. After the PEG dissolved, triethylamine (5.2 μL, 0.037 mmol) was added. At 1 hour, the reaction solvent was evaporated at reduced pressure to a dry solid. The product was redissolved in anhydrous acetonitrile (0.5 mL) and precipitated by slow addition of anhydrous IPA (8 mL total). The product was washed with anhydrous IPA (50 mL) and diethyl ether. Residual solvent was evaporated at reduced pressure. Yield was 75 mg yellow powder (75% yield). HPLC analysis was on C18 applying an acetonitrile gradient with 0.1% TFA; retention times were desethyl sunitinib (compound 1) 2.5 minutes and product at 10.7 minutes. Buffer hydrolysis was performed to monitor the release of des-ethyl sunitinib (100 mM phosphate, 37° C.): 36 days at pH 7.5, 3.6 days at pH 8.5.\nIn a 10 mL round bottom flask was added Compound 2b (9.6 mg, 0.013 mmol). The solids were suspended in anhydrous acetonitrile (0.37 mL) and 1,4 dioxane (0.37 mL). mPEG-SPA 20K (181.3 mg, 9.07 μmol) was added. After the PEG dissolved, triethylamine (9.24 μL, 0.066 mmol) was added. At one hour, the product was precipitated by slow addition of anhydrous IPA (10 mL). The solid was washed with anhydrous IPA (25-30 mL) and then washed with diethyl ether. Residual solvent was evaporated at reduced pressure. Yield was ˜120 mg yellow powder. The product was transferred to a 50 mL round bottom flask. More Compound 2b (6.9 mg, 9.18 μmol) was added. Anhydrous acetonitrile (0.25 mL) and anhydrous 1,4 dioxane (0.25 mL) and anhydrous pyridine (2.2 μL, 0.027 mmol) were added. The reagents never fully dissolved, therefore triethylamine (6 μL, 0.043 mmol) was added. The solution was a clear orange color. After 45 minutes, the product was precipitated by slow addition of anhydrous IPA (˜10 mL). The solid was washed with anhydrous IPA (˜25-30 mL) and then washed with diethyl ether. Residual solvent was evaporated at reduced pressure. Yield was ˜68 mg (57%) yellow powder. HPLC analysis was on C18 applying an acetonitrile gradient with 0.1% TFA; retention times were desethyl sunitinib (compound 1) 2.5 min and product at 10.7 min. Buffer hydrolysis was performed to monitor the release of des-ethyl sunitinib (100 mM phosphate, 37° C.): 22 days at pH 7.5, 1.4 days at pH 8.5.\nExperiments were carried out to measure drug release from the polymer conjugates. A typical plot of the data showing the decay of the polymer conjugate (FIG. 1) and the build-up of drug with time (FIG. 2) are included.\nIn a 10 mL round bottom flask was Compound 2c (7.4 mg, 7.69 μmol) was suspended in anhydrous dioxane (0.5 mL) and anhydrous acetonitrile (0.5 mL). mPEG-SPA 20K (100.0 mg, 5.0 μmol) was added. After the PEG dissolved, triethylamine (7.2 μL, 0.052 mmol) was added. At thirty minutes, anhydrous acetonitrile (0.5 mL) and anhydrous methanol (0.3 mL) were added. At two hours total reaction time, the product was precipitated by slow addition of anhydrous IPA containing 0.25% phosphoric acid. The product was washed with anhydrous IPA and then washed with diethyl ether. Residual solvent was evaporated at reduced pressure. Yield: 58 mg (58%) yellow powder. HPLC analysis employed a C18 column using an acetonitrile gradient with 0.1% TFA; retention times were des-ethyl sunitinib 2.5 min and product 10.7 minutes with 41% purity at 320 nm. Buffer hydrolysis was done to monitor the release of desethyl sunitinib (100 mM phosphate, 37° C.): 11 d at pH 7.5, 1.7 d at pH 8.5.",
  "data": [
    {"substance": "(Z)-(9-(hydroxymethyl)-N2-(2-(2-(2-methoxyethoxy)ethoxy)ethyl)-N7-(2-β-(2-(mPEG 20,000))propanamido)ethyl)-9H-fluorene-2,7-dicarboxamide) ethyl(2-(5-((5-fluoro-2-oxoindolin-3-ylidene)methyl)-2,4-dimethyl-1H-pyrrole-3-carboxamido)ethyl)carbamate [Compound 3c]", "values": [
      {"measurement": "Buffer hydrolysis, release of desethyl sunitinib at pH 7.5", "setting": "pH 7.5", "value": 11, "unit": "d"},
      {"measurement": "Buffer hydrolysis, release of desethyl sunitinib at pH 8.5", "setting": "pH 8.5", "value": 1.7, "unit": "d"}
    ]},
    {"substance": "(Z)-(9-(hydroxymethyl)-N-(2-β-(mPEG 20,000)propanamido)ethyl)-9H-fluorene-2-carboxamide) ethyl(2-(5-((5-fluoro-2-oxoindolin-3-ylidene)methyl)-2,4-dimethyl-1H-pyrrole-3-carboxamido)ethyl)carbamate [Compound 3a]", "values": [
      {"measurement": "Buffer hydrolysis, release of des-ethyl sunitinib at pH 7.5", "setting": "pH 7.5", "value": 36, "unit": "days"},
      {"measurement": "Buffer hydrolysis, release of des-ethyl sunitinib at pH 8.5", "setting": "pH 8.5", "value": 3.6, "unit": "days"}
    ]},
    {"substance": "(Z)-(9-(hydroxymethyl)-N-(2-β-(mPEG 20,000)propanamido)ethyl)-9H-fluorene-4-carboxamide) ethyl(2-(5-((5-fluoro-2-oxoindolin-3-ylidene)methyl)-2,4-dimethyl-1H-pyrrole-3-carboxamido)ethyl)carbamate [Compound 3b]", "values": [
      {"measurement": "Buffer hydrolysis, release of des-ethyl sunitinib at pH 7.5", "setting": "pH 7.5", "value": 22, "unit": "days"},
      {"measurement": "Buffer hydrolysis, release of des-ethyl sunitinib at pH 8.5", "setting": "pH 8.5", "value": 1.4, "unit": "days"}
    ]}
  ]
}
